The results in this text go back to patent US20200002414A1 (published 2020).

Numbering of substitutions follows the chain as printed. Numbers in names are those of the source.

B1: HC-A097T (antibody, V domains shown)
VH: EVQLQQSGPELVKPGASVKISCKTSGYTFTEYTMHWMKQSHRKSLEWIGGINTNNGGTGYNQKFKGKATLTVDKSSSTAYMELRSLTSEDSAVYFCTRGSLYSYGNSYFDYWGQGTLVTVSS
VL: QIVLTQSPAIMSASPGEKVTITCSATSSVSYMHWFQQKPGTSPKLWIYGTSNLASGVPARFSGSGSGTSYSLTISRMEAEDAATYYCQQRSSYPFTFGQGTKVEIK
B2: HC-Y111T (antibody, V domains shown)
VH: B1 VH with T97A, Y111T
VL: B1 VL
B3: HC-R098H (antibody, V domains shown)
VH: B1 VH with T97A, R98H
VL: B1 VL
B4: HC-N052L (antibody, V domains shown)
VH: B1 VH with N52L, T97A
VL: B1 VL
B5: HC-M034E (antibody, V domains shown)
VH: B1 VH with M34E, T97A
VL: B1 VL
B6: HC-A097S (antibody, V domains shown)
VH: B1 VH with T97S
VL: B1 VL
B7: HC-N052V (antibody, V domains shown)
VH: B1 VH with N52V, T97A
VL: B1 VL
B8: HC-N052C (antibody, V domains shown)
VH: B1 VH with N52C, T97A
VL: B1 VL
B9: HC-A097I (antibody, V domains shown)
VH: B1 VH with T97I
VL: B1 VL
B10: HC-S103G (antibody, V domains shown)
VH: B1 VH with T97A, S103G
VL: B1 VL
B11: HC-I051E (antibody, V domains shown)
VH: B1 VH with I51E, T97A
VL: B1 VL
B12: HC-L101F (antibody, V domains shown)
VH: B1 VH with T97A, L101F
VL: B1 VL
B13: HC-W112L (antibody, V domains shown)
VH: B1 VH with T97A, W112L
VL: B1 VL
B14: HC-G099E (antibody, V domains shown)
VH: B1 VH with T97A, G99E
VL: B1 VL
B15: HC-G105D (antibody, V domains shown)
VH: B1 VH with T97A, G105D
VL: B1 VL
B16: HC-G050S (antibody, V domains shown)
VH: B1 VH with G50S, T97A
VL: B1 VL
B17: HC-T033C (antibody, V domains shown)
VH: B1 VH with T33C, T97A
VL: B1 VL
B18: HC-T053D (antibody, V domains shown)
VH: B1 VH with T53D, T97A
VL: B1 VL
B19: HC-M034D (antibody, V domains shown)
VH: B1 VH with M34D, T97A
VL: B1 VL
B20: HC-N106E (antibody, V domains shown)
VH: B1 VH with T97A, N106E
VL: B1 VL
B21: HC-Y111C (antibody, V domains shown)
VH: B1 VH with T97A, Y111C
VL: B1 VL
B22: HC-A097M (antibody, V domains shown)
VH: B1 VH with T97M
VL: B1 VL
B23: HC-M034Y (antibody, V domains shown)
VH: B1 VH with M34Y, T97A
VL: B1 VL
B24: HC-T053E (antibody, V domains shown)
VH: B1 VH with T53E, T97A
VL: B1 VL
B25: HC-R098Q (antibody, V domains shown)
VH: B1 VH with T97A, R98Q
VL: B1 VL
B26: HC-F029E (antibody, V domains shown)
VH: B1 VH with F29E, T97A
VL: B1 VL
B27: HC-D110L (antibody, V domains shown)
VH: B1 VH with T97A, D110L
VL: B1 VL
B28: HC-Y032D (antibody, V domains shown)
VH: B1 VH with Y32D, T97A
VL: B1 VL
B29: LC-V029E (antibody, V domains shown)
VH: B1 VH with T97A
VL: B1 VL with V29E

For one assay, the target named is T1, human Ror2 (human, UniProt Q01974 34-403, limits assumed).
T1 construct: also called hROR2; receptor tyrosine kinase-like orphan receptor 2
T1 sequence (Q01974 34-403 limits assumed): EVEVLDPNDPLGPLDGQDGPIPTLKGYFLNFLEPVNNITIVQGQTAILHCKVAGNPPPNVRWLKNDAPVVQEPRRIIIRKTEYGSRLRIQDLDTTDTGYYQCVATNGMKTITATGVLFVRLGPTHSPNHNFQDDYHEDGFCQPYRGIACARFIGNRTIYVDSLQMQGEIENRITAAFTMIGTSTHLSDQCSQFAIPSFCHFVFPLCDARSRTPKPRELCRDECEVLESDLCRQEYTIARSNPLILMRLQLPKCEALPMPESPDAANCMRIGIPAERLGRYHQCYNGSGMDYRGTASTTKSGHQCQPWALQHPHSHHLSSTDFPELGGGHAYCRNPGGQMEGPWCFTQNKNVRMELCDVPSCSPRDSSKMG
Put plainly: ELISA, human Ror2, pH 6.0. (In general: An ELISA detects its analyte on a solid surface through an enzyme-linked reagent.)
In the case of B1, the “Affinity ELISA pH 6.0” value was determined as 1.83.
Regarding B2, the “Affinity ELISA pH 6.0” value is 1.86.
In the case of B3, the “Affinity ELISA pH 6.0” value was found to be 0.928.
On to B4, for which the “Affinity ELISA pH 6.0” value was found to be 0.911.
Same read-out and setting: with B5 the figure was 1.17; with B6, 1.67; with B7, 0.87.
Turning to B8, the “Affinity ELISA pH 6.0” value turned out to be 0.995.
Same read-out and setting: for B9 the value was 1.89; for B10, 0.794; for B11, 1.04.
For the molecule B12, the “Affinity ELISA pH 6.0” value turned out to be 1.46.
Regarding B13, the “Affinity ELISA pH 6.0” value turned out to be 1.75.
Turning to B14, the “Affinity ELISA pH 6.0” value was found to be 0.616.
As for B15, the “Affinity ELISA pH 6.0” value is 0.509.
Turning to B16, the “Affinity ELISA pH 6.0” value was determined as 0.823.
Take B17: the “Affinity ELISA pH 6.0” value was determined as 0.626.
Regarding B18, the “Affinity ELISA pH 6.0” value came out at 1.11.
For the molecule B19, the “Affinity ELISA pH 6.0” value amounted to 1.24.
Consider B20, for which the “Affinity ELISA pH 6.0” value worked out at 0.224.
As to B21, the “Affinity ELISA pH 6.0” value was found to be 1.08.
On to B22, for which the “Affinity ELISA pH 6.0” value turned out to be 1.98.
In the case of B23, the “Affinity ELISA pH 6.0” value stood at 0.903.
As for B24, the “Affinity ELISA pH 6.0” value came to 0.54.
As for B25, the “Affinity ELISA pH 6.0” value stood at 0.799.
Consider B26, for which the “Affinity ELISA pH 6.0” value is 1.34.
For B27, the “Affinity ELISA pH 6.0” value was determined as 1.68.
Regarding B28, the “Affinity ELISA pH 6.0” value was determined as 1.47.

The target in another assay is T1, human Ror2. Put plainly: ELISA, human Ror2, pH 6.0. The source holds these as a separate data set.
For the molecule B29, the “Affinity ELISA pH 6.0” value came out at 0.406.

The target in the next assay is T1, human Ror2. Put plainly: ELISA, human Ror2, pH 7.4.
In the case of B1, the “Affinity ELISA pH 7.4” value turned out to be 1.69.
For B2, the “Affinity ELISA pH 7.4” value worked out at 1.4.
On the same count and under the same terms, for B3 the value was 0.353.
The same measure, in the same setting: with B4 the figure was 0.433.
For B5, the “Affinity ELISA pH 7.4” value came out at 0.185.
Same read-out and setting: with B6 the figure was 1.69.
For the molecule B7, the “Affinity ELISA pH 7.4” value was 0.34.
B8: the “Affinity ELISA pH 7.4” value came out at 0.431.
On to B9, for which the “Affinity ELISA pH 7.4” value worked out at 1.73.
Turning to B10, the “Affinity ELISA pH 7.4” value was determined as 0.655.
Regarding B11, the “Affinity ELISA pH 7.4” value amounted to 0.1.
As to B12, the “Affinity ELISA pH 7.4” value worked out at 1.41.
The same measure, in the same setting: for B13 the value was 1.7; for B14, 0.421; for B15, 0.379.
Consider B16, for which the “Affinity ELISA pH 7.4” value stood at 0.318.
For B17, the “Affinity ELISA pH 7.4” value turned out to be 0.232.
As to B18, the “Affinity ELISA pH 7.4” value was 0.222.
Take B19: the “Affinity ELISA pH 7.4” value came to 0.211.
On to B20, for which the “Affinity ELISA pH 7.4” value came to 0.115.
For the molecule B21, the “Affinity ELISA pH 7.4” value was found to be 0.793.
Turning to B22, the “Affinity ELISA pH 7.4” value came out at 1.7.
B23: the “Affinity ELISA pH 7.4” value was found to be 0.391.
Same read-out and setting: with B24 the figure was 0.157; with B25, 0.276; with B26, 0.742.
As to B27, the “Affinity ELISA pH 7.4” value turned out to be 1.4.
Regarding B28, the “Affinity ELISA pH 7.4” value is 0.51.

The next assay addresses T1, human Ror2. Put plainly: ELISA, human Ror2; ratio of signal at pH 6.0 to pH 7.4.
Regarding B1, the “ratio, pH 6.0/7.4” value was 1.67.
Take B2: the “ratio, pH 6.0/7.4” value was 1.68.
On to B3, for which the “ratio, pH 6.0/7.4” value turned out to be 2.63.
On the same count and under the same terms, for B4 the value was 2.1; for B5, 6.3; for B6, 1.67.
With B7, the “ratio, pH 6.0/7.4” value was 2.56.
In the case of B8, the “ratio, pH 6.0/7.4” value came to 2.31.
As to B9, the “ratio, pH 6.0/7.4” value was 1.89.
With B10, the “ratio, pH 6.0/7.4” value turned out to be 1.21.
On the same count and under the same terms, with B11 the figure was 10.4.
Turning to B12, the “ratio, pH 6.0/7.4” value came out at 1.46.
Regarding B13, the “ratio, pH 6.0/7.4” value was 1.75.
On the same count and under the same terms, for B14 the value was 1.46; for B15, 1.34; for B16, 2.6.
Turning to B17, the “ratio, pH 6.0/7.4” value worked out at 2.7.
Take B18: the “ratio, pH 6.0/7.4” value came to 4.99.
Turning to B19, the “ratio, pH 6.0/7.4” value was found to be 5.9.
For the molecule B20, the “ratio, pH 6.0/7.4” value amounted to 1.95.
Regarding B21, the “ratio, pH 6.0/7.4” value amounted to 1.36.
B22: the “ratio, pH 6.0/7.4” value worked out at 1.98.
Take B23: the “ratio, pH 6.0/7.4” value turned out to be 2.31.
On to B24, for which the “ratio, pH 6.0/7.4” value is 3.44.
As to B25, the “ratio, pH 6.0/7.4” value was found to be 2.89.
As to B26, the “ratio, pH 6.0/7.4” value is 1.81.
As to B27, the “ratio, pH 6.0/7.4” value was 1.68.
With B28, the “ratio, pH 6.0/7.4” value is 2.88.

The target in the next assay is T1, human Ror2. Described as above. The source holds these as a separate data set.
Consider B29, for which the “ratio, pH 6.0/7.4” value is 3.15.

The next assay deals with T1, human Ror2. Put plainly: ELISA, human Ror2, pH 7.4. This is another data set of the same source.
In the case of B29, the “Affinity ELISA pH 7.4” value was 0.129.
